The results in this text go back to paper PMC3171579 (ACS combinatorial science, 2011).

Experiment [1] has as its target T1, FK506-binding protein 12 (human, UniProt P62942 1-108). Put plainly: fluorescence polarisation. (In general: Polarisation of emitted light reports the rotation of a fluorescent probe.)
In experiment [2] the target is T1, FK506-binding protein 12. Put plainly: fluorescence polarisation. The source holds these as a separate data set.

Where two headings read alike, the source gives them in different places. Non-standard residues stand in square brackets, D forms with d. *: point of attachment. Dkb = 3,3-dimethyl-2-ketobutyryl, CC(C)(C)C(=O)C(=O)*; d(β3hF) = N[C@@H](CC(=O)O)Cc1ccccc1; Pip = O=C(O)[C@@H]1CCCCN1; Nle = CCCC[C@H](N)C(=O)O

T1 sequence (P62942 whole entry): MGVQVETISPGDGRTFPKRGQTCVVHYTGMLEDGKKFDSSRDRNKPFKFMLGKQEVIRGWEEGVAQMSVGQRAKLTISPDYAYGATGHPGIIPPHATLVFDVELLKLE

Turning to cyclo(DP[dA][Dkb][Pip][d(β3hF)]Q) (also: ester bond between residues 3 and 4) [rapalog 11 (R3 Pro, R4 Asp)], in the experiment with FK506-binding protein 12 [1], the IC50 is 21 µM.

The molecule cyclo([dV][dV][dA][Dkb][Pip][d(β3hF)]Q) (also: ester bond between residues 3 and 4) [rapalog 11 (R3 D-Val, R4 D-Val)] showed an IC50 with FK506-binding protein 12 [1] greater than 100 µM.

For the molecule cyclo([Nle][dT][dA][Dkb][Pip][d(β3hF)]Q) (also: ester bond between residues 3 and 4) [rapalog 11 (R3 D-Thr, R4 Nle)], the IC50 with FK506-binding protein 12 [1] was greater than 100 µM.

Molecule cyclo(A[dV]P[dA][Dkb][Pip][d(β3hF)]Q) (also: 5 Dkb: ester to 4) [rapalog 12 (R3 Pro, R4 D-Val)] showed an IC50 with FK506-binding protein 12 [1] of 43 µM.

In turn, cyclo(AAK[dA][Dkb][Pip][d(β3hF)]Q) (also: 5 Dkb: ester to 4) [rapalog 12 (R3 Lys, R4 Ala)] displayed an IC50 with FK506-binding protein 12 [1] greater than 100 µM.

Molecule cyclo(K[dT][dA][Dkb][Pip][d(β3hF)]Q) (also: ester bond between residues 3 and 4) [rapalog 11 (R3 D-Thr, R4 Lys)] displayed an IC50 with FK506-binding protein 12 [1] greater than 100 µM.

As for cyclo([dF]P[dA][Dkb][Pip][d(β3hF)]Q) (also: 4 Dkb: ester to 3) [rapalog 11 (R3 Pro, R4 D-Phe)], in the experiment with FK506-binding protein 12 [1], the IC50 stood at 46 µM.

In the experiment with FK506-binding protein 12 [1], cyclo(A[dV][dV][dA][Dkb][Pip][d(β3hF)]Q) (also: 5 Dkb: ester to 4) [rapalog 12 (R3 D-Val, R4 D-Val)] had an IC50 greater than 100 µM.

cyclo(K[dF][dA][Dkb][Pip][d(β3hF)]Q) (also: ester bond between residues 3 and 4) [rapalog 11 (R3 D-Phe, R4 Lys)] returned an IC50 with FK506-binding protein 12 [1] greater than 100 µM.

For cyclo([dV]P[dA][Dkb][Pip][d(β3hF)]Q) (also: 4 Dkb: ester to 3) [rapalog 11 (R3 Pro, R4 D-Val)], the IC50 with FK506-binding protein 12 [1] is 64 µM.

For cyclo(AKP[dA][Dkb][Pip][d(β3hF)]Q) (also: 5 Dkb: ester to 4) [rapalog 12 (R3 Pro, R4 Lys)], in the experiment with FK506-binding protein 12 [1], the IC50 came out at 29 µM.

cyclo([dT]K[dA][Dkb][Pip][d(β3hF)]Q) (also: ester bond between residues 3 and 4) [rapalog 11 (R3 Lys, R4 D-Thr)] yielded an IC50 in the experiment with FK506-binding protein 12 [1] of 62 µM.

cyclo(ADP[dA][Dkb][Pip][d(β3hF)]Q) (also: 5 Dkb: ester to 4) [rapalog 12 (R3 Pro, R4 Asp)]: the IC50 with FK506-binding protein 12 [1] worked out at 3 µM.

In the experiment with FK506-binding protein 12 [1], cyclo(PK[dA][Dkb][Pip][d(β3hF)]Q) (also: ester bond between residues 3 and 4) [rapalog 11 (R3 Lys, R4 Pro)] had an IC50 of 58 µM.

In the experiment with FK506-binding protein 12 [1], cyclo(PP[dA][Dkb][Pip][d(β3hF)]Q) (also: 4 Dkb: ester to 3) [rapalog 11 (R3 Pro, R4 Pro)] registered an IC50 of 27 µM.

Molecule cyclo(AAP[dA][Dkb][Pip][d(β3hF)]Q) (also: 5 Dkb: ester to 4) [rapalog 12 (R3 Pro, R4 Ala)] displayed an IC50 with FK506-binding protein 12 [1] of 21 µM.

In the experiment with FK506-binding protein 12 [1], cyclo(AP[dT][dA][Dkb][Pip][d(β3hF)]Q) (also: 5 Dkb: ester to 4) [rapalog 12 (R3 D-Thr, R4 Pro)] gave an IC50 greater than 100 µM.

Molecule cyclo(PA[dA][Dkb][Pip][d(β3hF)]Q) (also: ester bond between residues 3 and 4) [rapalog 11 (R3 Ala, R4 Pro)] came in with an IC50 with FK506-binding protein 12 [1] greater than 100 µM.

On to cyclo(AK[dA][Dkb][Pip][d(β3hF)]Q) (also: ester bond between residues 3 and 4) [rapalog 11 (R3 Lys, R4 Ala)], for which, in the experiment with FK506-binding protein 12 [1], the IC50 is greater than 100 µM.

cyclo(AKA[dA][Dkb][Pip][d(β3hF)]Q) (also: 5 Dkb: ester to 4) [rapalog 12 (R3 Ala, R4 Lys)] displayed an IC50 with FK506-binding protein 12 [1] greater than 100 µM.

For the molecule cyclo(A[dT]P[dA][Dkb][Pip][d(β3hF)]Q) (also: 5 Dkb: ester to 4) [rapalog 12 (R3 Pro, R4 D-Thr)], in the experiment with FK506-binding protein 12 [1], the IC50 came to 38 µM.

Turning to cyclo(K[Nle][dA][Dkb][Pip][d(β3hF)]Q) (also: ester bond between residues 3 and 4) [rapalog 11 (R3 Nle, R4 Lys)], the IC50 in the experiment with FK506-binding protein 12 [1] was greater than 100 µM.

Regarding cyclo(AK[dF][dA][Dkb][Pip][d(β3hF)]Q) (also: 5 Dkb: ester to 4) [rapalog 12 (R3 D-Phe, R4 Lys)], the IC50 with FK506-binding protein 12 [1] is greater than 100 µM.

The molecule cyclo(A[dF][dV][dA][Dkb][Pip][d(β3hF)]Q) (also: 5 Dkb: ester to 4) [rapalog 12 (R3 D-Val, R4 D-Phe)] showed an IC50 in the experiment with FK506-binding protein 12 [1] greater than 100 µM.

cyclo([dT]P[dA][Dkb][Pip][d(β3hF)]Q) (also: 4 Dkb: ester to 3) [rapalog 11 (R3 Pro, R4 D-Thr)] returned an IC50 with FK506-binding protein 12 [1] of 41 µM.

With cyclo([Nle]P[dA][Dkb][Pip][d(β3hF)]Q) (also: 4 Dkb: ester to 3) [rapalog 11 (R3 Pro, R4 Nle)], the IC50 with FK506-binding protein 12 [1] was determined as 71 µM.

Regarding cyclo(WK[dA][Dkb][Pip][d(β3hF)]Q) (also: ester bond between residues 3 and 4) [rapalog 11 (R3 Lys, R4 Trp)], in the experiment with FK506-binding protein 12 [1], the IC50 amounted to 12 µM.

For the molecule cyclo(A[Nle]K[dA][Dkb][Pip][d(β3hF)]Q) (also: 5 Dkb: ester to 4) [rapalog 12 (R3 Lys, R4 Nle)], the IC50 with FK506-binding protein 12 [1] was greater than 100 µM.

cyclo(KP[dA][Dkb][Pip][d(β3hF)]Q) (also: 4 Dkb: ester to 3) [rapalog 11 (R3 Pro, R4 Lys)]: the IC50 in the experiment with FK506-binding protein 12 [1] came to 36 µM.

cyclo(AAF[Dkb][Pip][d(β3hF)]Q) (also: Dkb 4 joined by ester to 3) [rapalog 2k] came in with an IC50 in the experiment with FK506-binding protein 12 [2] of 18 µM.

In the experiment with FK506-binding protein 12 [1], cyclo(WP[dA][Dkb][Pip][d(β3hF)]Q) (also: 4 Dkb: ester to 3) [rapalog 11 (R3 Pro, R4 Trp)] displayed an IC50 of 21 µM.

cyclo(A[dT][Nle][dA][Dkb][Pip][d(β3hF)]Q) (also: 5 Dkb: ester to 4) [rapalog 12 (R3 Nle, R4 D-Thr)]: the IC50 with FK506-binding protein 12 [1] is greater than 100 µM.

cyclo(A[dT]K[dA][Dkb][Pip][d(β3hF)]Q) (also: 5 Dkb: ester to 4) [rapalog 12 (R3 Lys, R4 D-Thr)] displayed an IC50 with FK506-binding protein 12 [1] greater than 100 µM.

For the molecule cyclo(KK[dA][Dkb][Pip][d(β3hF)]Q) (also: ester bond between residues 3 and 4) [rapalog 11 (R3 Lys, R4 Lys)], in the experiment with FK506-binding protein 12 [1], the IC50 was greater than 100 µM.

The molecule cyclo(AP[dF][dA][Dkb][Pip][d(β3hF)]Q) (also: 5 Dkb: ester to 4) [rapalog 12 (R3 D-Phe, R4 Pro)] gave an IC50 with FK506-binding protein 12 [1] greater than 100 µM.

In the experiment with FK506-binding protein 12 [1], cyclo(GK[dA][Dkb][Pip][d(β3hF)]Q) (also: ester bond between residues 3 and 4) [rapalog 11 (R3 Lys, R4 Gly)] registered a half-maximal inhibitory concentration (IC50) of 93 µM.

In the case of cyclo(AP[dV][dA][Dkb][Pip][d(β3hF)]Q) (also: 5 Dkb: ester to 4) [rapalog 12 (R3 D-Val, R4 Pro)], the IC50 with FK506-binding protein 12 [1] is greater than 100 µM.

cyclo([dV]K[dA][Dkb][Pip][d(β3hF)]Q) (also: ester bond between residues 3 and 4) [rapalog 11 (R3 Lys, R4 D-Val)]: the IC50 with FK506-binding protein 12 [1] is 80 µM.

Molecule cyclo([dF][dV][dA][Dkb][Pip][d(β3hF)]Q) (also: ester bond between residues 3 and 4) [rapalog 11 (R3 D-Val, R4 D-Phe)] registered an IC50 with FK506-binding protein 12 [1] greater than 100 µM.

The molecule cyclo(AP[dA][Dkb][Pip][d(β3hF)]Q) (also: ester bond between residues 3 and 4) [rapalog 11 (R3 Pro, R4 Ala)] showed an IC50 with FK506-binding protein 12 [1] of 33 µM.

On to cyclo(A[dF]P[dA][Dkb][Pip][d(β3hF)]Q) (also: 5 Dkb: ester to 4) [rapalog 12 (R3 Pro, R4 D-Phe)], for which, in the experiment with FK506-binding protein 12 [1], the IC50 is 87 µM.

In the experiment with FK506-binding protein 12 [1], cyclo(AGP[dA][Dkb][Pip][d(β3hF)]Q) (also: 5 Dkb: ester to 4) [rapalog 12 (R3 Pro, R4 Gly)] came in with an IC50 of 6 µM.

By IC50 is commonly meant the concentration needed to halve the response being measured.
